Experimental data as given in article PMC6362427, “Identification of Three (Iso)flavonoid Glucosyltransferases From Pueraria lobata” (Frontiers in Plant Science, 2019).

B1: PlUGT4 (Pueraria montana var. lobata) (protein)
chain: MEKPHIAVVPSPGFTHLVPILEFSKRLLHLHPEFHITCFIPSVGSPPSSSKAYLQTLPPTITSIFLPPITLDDVPDPSILALQIELSVNLSLPYIKQELESLCSRAKVVALVVDVFANGALDFAKELNLLSYIYLPQSAMLLSLYFYSTKLDEILSSAFRDLTKPIEIPGCVPIHNKDLPIHFQNLSSIGYKGFLERSKRFHVPDGVFMNTFLELEPGAIRALQELVKGKPKVYPVGPIIQMGSVGHENRVECLTWLDKQQEPNSVLYVSFGSGGTLSQEQLNELAFGLELSGQKFLWVVRAPSSVATVGYFCAETKDPLEFLPHGFLERTKEQGLVVPSWAPQIQVLSHGATGGFLSHCGWNSVLESVVQGVPVITWPLFAEQSLNAAMLTDDLKVALRPKVNESGLAEREEIAKVVRGLMEGNEGMEIRKRMGLLKIAAANAIKEDGSSTKTLSEVATSSRGF
notes: full-length ORF (464-477 residues range for the three), GST fusion in pGEX-2T (given as C-terminal fusion with GST tag), E. coli BL21, glutathione Sepharose purified
B2: PlUGT57 (Pueraria montana var. lobata) (protein)
chain: MGSEAPIHVLMVSYPAQGHINPLLRLGKCLAAKGLFVTFTTSETAGKDMRKANNITDKSVIPVGDGFLKFDFFEDGMADDDVSKKKSLSDVSAQLELVGKQYVSQMIKKHAESHHPISCIINNPFVPWVCDVAAEHAIPSAMLWIQSSAVFTAYYSYFYKLVSFPSDADPYVDVQLSSVVLKHNEVPDFLHPFSPYRFLGTLILEQFKNLSKPFCVLVDSFEELEHDYIDYLSKFLDIRPVGPLFKTPIATGTSDIRGDFMKSDDCIEWLNSRAPASVVYISFGSIVYLPQEQVTEIAHGLLNSHVSFLWVLKPPPKGYGVPPHVLPDGFFEGTRDKGKVVQWSPQEEVLAHPSVACFLTHCGWNSSMEALTLGMPMLTFPAWGDQVTNAKFLVDVFGVGIKLGYGHAAKKVVSREEVKKCLLEATVGPKAEELKQISFKWKKAAEAAVAANGSSARNLDAFMKDIKKRGAVGVNEI
notes: as for B1

Columns and labels:
[1] = substrate: O=c1c(-c2ccc(O)cc2)coc2cc(O)ccc12; assay: HPLC glucosylation assay; assay type: biochemical, Pueraria montana; conditions: UDP-glucose co-substrate (5 mM in the activity assay), 50 mM Tris-HCl pH 8.0, 30°C
[2] = substrate: O=c1c(-c2ccc(O)cc2)coc2cc(O)cc(O)c12; assay: HPLC glucosylation assay; assay type: biochemical, Pueraria montana; conditions: UDP-glucose co-substrate (5 mM in the activity assay), 50 mM Tris-HCl pH 8.0, 30°C

Protein | Km [1] [µM] | kcat [1] [s⁻¹] | kcat/Km [1] [M⁻¹ s⁻¹] | Km [2] [µM] | kcat [2] [s⁻¹] | kcat/Km [2] [M⁻¹ s⁻¹]
B1 | 110.8 ± 36.4 | 0.0075 ± 0.0009 | 67.1 | 87.3 ± 38.9 | 0.014 ± 0.0021 | 156
B2 | 16.3 ± 1.87 | 0.034 ± 0.0009 | 2100 | 7.68 ± 3.58 | 0.11 ± 0.01 | 13700
